From patent publication US20220064312A1 (SHIONOGI, published 2022)
Positions count from the first letter of the chain named. Numbers in names are those of the source. Read-outs that look alike come from different tables or passages of the source.

Assays:
N-ter hCCR4-hCCR8 = biological target: T1, N-ter hCCR4-hCCR8 (human); test: flow cytometry, transfected Expi293 cells
T1 construct: chimera on Expi293 cells; remaining hCCR8 ranges derived from the stated swapped ranges and the 355-residue length; also called N-terminal region human CCR4-substituted human CCR8
T1 chain: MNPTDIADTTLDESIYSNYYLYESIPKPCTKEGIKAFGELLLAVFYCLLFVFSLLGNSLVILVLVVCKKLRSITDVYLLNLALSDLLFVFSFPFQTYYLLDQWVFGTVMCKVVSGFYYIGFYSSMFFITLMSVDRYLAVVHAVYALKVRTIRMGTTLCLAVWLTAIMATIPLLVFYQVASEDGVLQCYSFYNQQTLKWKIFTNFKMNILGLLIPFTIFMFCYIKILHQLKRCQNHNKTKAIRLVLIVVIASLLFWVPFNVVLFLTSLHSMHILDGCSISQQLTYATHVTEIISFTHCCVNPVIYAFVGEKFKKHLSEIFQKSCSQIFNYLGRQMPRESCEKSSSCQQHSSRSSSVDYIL

hCCR8 (Y17A) = hCCR8 (Y17A) (human, UniProt P51685 1-355); test: flow cytometry, transfected Expi293 cells
mouse CCR8 = biological target: T2, mouse CCR8 (mouse, UniProt P56484 1-353); test: flow cytometry, transfected Expi293 cells
T2 construct: also called mCCR8
T2 sequence: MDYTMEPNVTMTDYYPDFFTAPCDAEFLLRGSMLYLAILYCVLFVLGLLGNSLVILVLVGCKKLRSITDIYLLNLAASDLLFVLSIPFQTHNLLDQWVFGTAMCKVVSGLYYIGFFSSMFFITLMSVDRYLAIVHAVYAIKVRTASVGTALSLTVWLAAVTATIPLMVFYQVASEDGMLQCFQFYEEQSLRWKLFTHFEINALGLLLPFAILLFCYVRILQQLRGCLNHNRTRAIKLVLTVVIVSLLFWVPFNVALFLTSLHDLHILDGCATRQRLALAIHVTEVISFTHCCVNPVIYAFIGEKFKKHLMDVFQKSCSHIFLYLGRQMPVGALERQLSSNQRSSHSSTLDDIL

human CCR4 = biological target: T3, human CCR4 (human, UniProt P51679 1-360); test: flow cytometry, transfected Expi293 cells
T3 construct: also called hCCR4
T3 sequence: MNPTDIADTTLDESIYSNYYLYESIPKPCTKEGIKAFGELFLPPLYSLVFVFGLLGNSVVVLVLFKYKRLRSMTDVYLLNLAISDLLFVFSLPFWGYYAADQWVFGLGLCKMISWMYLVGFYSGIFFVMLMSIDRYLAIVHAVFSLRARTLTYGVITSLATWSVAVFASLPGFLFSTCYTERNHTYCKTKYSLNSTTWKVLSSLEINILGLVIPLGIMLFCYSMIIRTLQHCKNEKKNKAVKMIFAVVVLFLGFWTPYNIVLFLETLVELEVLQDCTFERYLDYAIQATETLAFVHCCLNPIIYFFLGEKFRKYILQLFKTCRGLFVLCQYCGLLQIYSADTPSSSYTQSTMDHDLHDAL

loop1 hCCR4-hCCR8 [1] = biological target: T4, loop1 hCCR4-hCCR8 (human, UniProt P51685 1-355); test: flow cytometry, transfected Expi293 cells; Δ = significantly reduced vs hCCR8
T4 construct: chimera on Expi293 cells; hCCR8 ranges derived; also called loop 1-human CCR4-substituted human CCR8

loop2 hCCR4-hCCR8 = biological target: T5, loop2 hCCR4-hCCR8 (human, UniProt P51685 1-355); test: as above
T5 construct: chimera on Expi293 cells; hCCR8 ranges derived; also called loop2-human CCR4-substituted human CCR8

human CCR8 [2] = biological target: T6, human CCR8 (human, UniProt P51685 1-355); test: cell-based or functional assay
human CCR8 [3] = biological target: T6, human CCR8; test: cell-based or functional assay; remark: listed apart in the source
human CCR8 [4] = biological target: T6, human CCR8; test: cell-based or functional assay; remark: listed apart in the source
loop1 hCCR4-hCCR8 [5] = biological target: T4, loop1 hCCR4-hCCR8; test: flow cytometry, transfected Expi293 cells
human CCR8 [6] = biological target: T6, human CCR8; test: cell-based or functional assay; remark: listed apart in the source
human CCR8 [7] = biological target: T6, human CCR8; test: cell-based or functional assay; remark: listed apart in the source

T6 sequence (P51685 whole entry): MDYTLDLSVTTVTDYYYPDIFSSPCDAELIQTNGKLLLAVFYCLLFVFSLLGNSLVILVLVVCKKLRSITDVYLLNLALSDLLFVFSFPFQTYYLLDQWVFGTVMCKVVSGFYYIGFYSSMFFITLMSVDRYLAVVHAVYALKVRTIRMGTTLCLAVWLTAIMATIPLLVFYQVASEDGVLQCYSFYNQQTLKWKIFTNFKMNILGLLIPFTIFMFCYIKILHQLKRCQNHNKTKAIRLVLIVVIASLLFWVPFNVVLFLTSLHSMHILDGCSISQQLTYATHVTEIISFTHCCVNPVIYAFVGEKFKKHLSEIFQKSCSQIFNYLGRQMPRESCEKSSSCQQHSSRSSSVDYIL
Chain of hCCR8 (Y17A) (P51685 whole entry Y17A): as the sequence (P51685 whole entry) above, with Y17A counted along it

B1: 27G1 (antibody, V domains shown)
VH: EVQLVESGGRLVQPKGSLKLSCAASGFAFNTYAMYWIRQAPGKGLEWVARIRSKSNNYATYYADSVKDRFTISRDDSQSMLYLQMNNLKTEDTAMYYCVRARFYYSDYGYAMDYWGQGTSVTVSS
VL: DIVMTQAAPSVPVTPGESVSISCRSSKSLLHSNGNTYLYWFLQRPGQSPQLLIYRMSNLASGVPDRFSGSGSGTAFTLRISRVEAEDVGVYYCMQHLEYPLTFGAGTKLELKR
notes: mouse hybridoma antibody
binding result (N-ter hCCR4-hCCR8): no binding
binding result (hCCR8 (Y17A)): no binding
binding result (mouse CCR8): no binding
binding result (human CCR4): no binding
binding result (loop1 hCCR4-hCCR8 [1]): binds
binding result (loop2 hCCR4-hCCR8): binds
Neutralizing Activity IC50 (nM), Ca2+ influx by 100 nM hCCL1 (human CCR8 [2]): 0.09 nM

B2: 10A11 (antibody, V domains shown)
VH: B1 VH with M34L
VL: B1 VL
notes: mouse hybridoma antibody; also called m10A11; clone No. 10A11
IC50 (nM), Ca2+ influx by 200 nM hCCL1 (human CCR8 [3]): 0.23 nM
binding result (N-ter hCCR4-hCCR8): no binding
binding result (hCCR8 (Y17A)): no binding
binding result (mouse CCR8): no binding
binding result (human CCR4): no binding
IC50 (nM), Ca2+ influx by 200 nM hCCL1 (human CCR8 [4]): 0.23 nM
binding result (loop1 hCCR4-hCCR8 [1]): binds
binding result (loop2 hCCR4-hCCR8): binds
Neutralizing Activity IC50 (nM), Ca2+ influx by 100 nM hCCL1 (human CCR8 [2]): 0.08 nM

B3: 8F7 (antibody, V domains shown)
VH: EVQLVESGGRLVQPKRSLKLSCAASGFTFNPYAMYWIRQAPGQGLEWVARIRSKSNNYATYYADSVKDRFTISRDDSQSMLYLQMNNLKTEDTAMYYCVRGHQGTMDYWGQGTSVTVSS
VL: B1 VL with I53T, L101F, A105G, L111I
notes: mouse hybridoma antibody
IC50 (nM), Ca2+ influx by 200 nM hCCL1 (human CCR8 [3]): 3.03 nM
binding result (N-ter hCCR4-hCCR8): no binding
binding result (hCCR8 (Y17A)): no binding
binding result (mouse CCR8): no binding
binding result (loop1 hCCR4-hCCR8 [5]): no binding
binding result (human CCR4): no binding
binding result (loop2 hCCR4-hCCR8): binds
Neutralizing Activity IC50 (nM), Ca2+ influx by 100 nM hCCL1 (human CCR8 [2]): 1.56 nM

B4: 2C7 (antibody, V domains shown)
VH: QVQLKQSGPSLVQPSQSLSITCTVSGFSLTAYGVHWIRQSPGKGQEWLGVIWRGGSTDYNAAFMSRLTITKDNSKSQVFFKMNSLQADDTAIYYCAKKGGSYAMDYWGQGTSVTVSS
VL: DVVLTQTPLSLPVSLGGQASISCRSSQSLVHSNGNTYLHWYLQKPGQSPKLLIYKVSNRFSGVPDRFSGSGSGTDFTLKISRVEAEDLGVYFCSQSTQVPLTFGAGTKLELKR
notes: mouse hybridoma antibody
IC50 (nM), Ca2+ influx by 200 nM hCCL1 (human CCR8 [3]): 1.19 nM
binding result (N-ter hCCR4-hCCR8): no binding
binding result (hCCR8 (Y17A)): no binding
binding result (mouse CCR8): no binding
binding result (loop1 hCCR4-hCCR8 [5]): no binding
binding result (human CCR4): no binding
binding result (loop2 hCCR4-hCCR8): binds
Neutralizing Activity IC50 (nM), Ca2+ influx by 100 nM hCCL1 (human CCR8 [2]): 0.4 nM

B5: 2-7B (antibody, V domains shown)
VH: EVQLVESDGGLVQPGRSLKLSCAASGFTFSDYYMAWVRQAPTKGLEWVATITYDVYSTYYRDSVKGRFTISRDNAKSTLYLQMDSLRSEDTATYYCARHGGDGYNSGNWFAYWGQGTLVTVSS
VL: DIVLTQSPALAVSLGQRATISCRASQSVSISRYNIMHWYQQKPGQQPKLLIYRASNLASGIPARFSGSGSGTDFTLTINPVQADDIATYYCQQSRESPPTFGGGTKLELKR
IC50 (nM), Ca2+ influx by 200 nM hCCL1 (human CCR8 [3]): 0.23 nM

B6: h10A11 (IGKV3-20/IGHV3-15 T94R) (antibody, V domains shown)
VH: EVQLVESGGALVKPGGSLRLSCAASGFTFSTYALYWVRQAPGKGLEWVGRIRSKSNNYATYYADSVKDRFTISRDDSKNTLYLQMNSLKTEDTAVYYCTRARFYYSDYGYAMDYWGQGTLVTVSS
VL: EIVLTQSPGTLSLSPGERATLSCRSSKSLLHSNGNTYLYWYQQKPGQAPRLLIYRMSNLASGIPDRFSGSGSGTDFTLTISRLEPEDFAVYYCMQHLEYPLTFGQGTKVEIKR
IC50 (nM), Ca2+ influx by 200 nM hCCL1 (human CCR8 [4]): 0.16 nM

B7: h10A11 (IGKV1-39/IGHV3-15 T94R) (antibody, V domains shown)
VH: B6 VH
VL: DIQMTQSPSSLSASVGDRVTITCRSSKSLLHSNGNTYLYWYQQKPGKAPKLLIYRMSNLASGVPSRFSGSGSGTDFTLTISSLQPEDFATYYCMQHLEYPLTFGQGTKLEIKR
IC50 (nM), Ca2+ influx by 200 nM hCCL1 (human CCR8 [4]): 0.2 nM

B8: h10A11 IGKV4-1 N53Q, G29R/IGHV3-15 T94R (antibody, V domains shown)
VH: B6 VH
VL: DIVMTQSPDSLAVSLGERATINCRSSKSLLHSNRNTYLYWYQQKPGQPPKLLIYRMSQLASGVPDRFSGSGSGTDFTLTISSLQAEDVAVYYCMQHLEYPLTFGQGTKLEIKR
IC50 (nM), Ca2+ influx by 200 nM hCCL1 (human CCR8 [6]): 0.12 nM

B9: h10A11 (IGKV2-40/IGHV3-15 T94R) (antibody, V domains shown)
VH: B6 VH
VL: DIVMTQTPLSLPVTPGEPASISCRSSKSLLHSNGNTYLYWYLQKPGQSPQLLIYRMSNLASGVPDRFSGSGSGTDFTLKISRVEAEDVGVYYCMQHLEYPLTFGQGTKLEIKR
IC50 (nM), Ca2+ influx by 200 nM hCCL1 (human CCR8 [4]): 0.3 nM

B10: h10A11 IGKV3-20 N53Q, N28K/IGHV3-15 T94R (antibody, V domains shown)
VH: B6 VH
VL: B6 VL with N33K, N58Q
IC50 (nM), Ca2+ influx by 200 nM hCCL1 (human CCR8 [6]): 0.29 nM

B11: h10A11 IGKV3-20 N53Q, G29L/IGHV3-15 T94R (antibody, V domains shown)
VH: B6 VH
VL: B6 VL with G34L, N58Q
IC50 (nM), Ca2+ influx by 200 nM hCCL1 (human CCR8 [6]): 0.21 nM

B12: h10A11 IGKV3-20 N53Q, G29R/IGHV3-15 T94R (antibody, V domains shown)
VH: B6 VH
VL: B6 VL with G34R, N58Q
IC50 (nM), Ca2+ influx by 200 nM hCCL1 (human CCR8 [6]): 0.19 nM

B13: h10A11 (IGKV1-16/IGHV3-15 T94R) (antibody, V domains shown)
VH: B6 VH
VL: B7 VL with Y41F, L51S
IC50 (nM), Ca2+ influx by 200 nM hCCL1 (human CCR8 [4]): 0.7 nM

B14: h10A11 (IGKV1-39/IGHV3-73) (antibody, V domains shown)
VH: B6 VH with A10G, K13Q, R19K, T28A, S30N, P41S, L81A
VL: B7 VL
IC50 (nM), Ca2+ influx by 200 nM hCCL1 (human CCR8 [4]): 0.16 nM

B15: h10A11 (IGKV2-40/IGHV3-73) (antibody, V domains shown)
VH: B6 VH with A10G, K13Q, R19K, T28A, S30N, P41S, L81A
VL: B9 VL
IC50 (nM), Ca2+ influx by 200 nM hCCL1 (human CCR8 [4]): 0.21 nM

B16: h10A11 (IGKV2-28/IGHV3-73) (antibody, V domains shown)
VH: B6 VH with A10G, K13Q, R19K, T28A, S30N, P41S, L81A
VL: B9 VL with T7S, L109V
IC50 (nM), Ca2+ influx by 200 nM hCCL1 (human CCR8 [4]): 0.2 nM

B17: h19D7 (IGKV2-18/IGHV3-73) (antibody, V domains shown)
VH: EVQLVESGGGLVQPGGSLKLSCAASGFTFSTYAMYWVRQASGKGLEWVGRIRSKSNNYATYYADSVKDRFTISRDDSKNTAYLQMNSLKTEDTAVYYCTRGGYGNYRYAMDYWGQGTTVTVSS
VL: DIVMTQTPPSLPVNPGEPASISCRSSKSLLHSNGNTYLYWYLQKPGQSPQLLIYRVSNLASGVPDRFSGSGSGSDFTLKISWVEAEDVGVYYCMQHLEYPFTFGQGTKLEIK
IC50 (nM), Ca2+ influx by 200 nM hCCL1 (human CCR8 [7]): 0.46 nM
